Measurements as given in patent US20260049134A1 (UNIVERSITY OF FLORIDA RESEARCH FOUNDATION, published 2026).
Where a chain is given by its changes, count along the chain named. Numbers in names are those of the source.

T1: IL13RA1
T1 construct: also called IL13RA1-Fc-His (R&D Systems)
T1 chain: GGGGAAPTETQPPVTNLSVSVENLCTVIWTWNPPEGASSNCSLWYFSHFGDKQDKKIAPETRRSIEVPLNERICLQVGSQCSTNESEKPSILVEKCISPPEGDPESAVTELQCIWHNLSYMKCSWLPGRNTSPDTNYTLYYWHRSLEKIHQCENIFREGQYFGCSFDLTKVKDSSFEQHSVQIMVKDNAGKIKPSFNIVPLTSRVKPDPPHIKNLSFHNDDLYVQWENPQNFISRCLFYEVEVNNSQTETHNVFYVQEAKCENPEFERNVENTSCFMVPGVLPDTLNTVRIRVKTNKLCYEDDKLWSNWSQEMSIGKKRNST

T2: SLAMF7
T2 construct: also called SLAMF7-StrepTag; not shown: StrepTag and any linker
T2 chain: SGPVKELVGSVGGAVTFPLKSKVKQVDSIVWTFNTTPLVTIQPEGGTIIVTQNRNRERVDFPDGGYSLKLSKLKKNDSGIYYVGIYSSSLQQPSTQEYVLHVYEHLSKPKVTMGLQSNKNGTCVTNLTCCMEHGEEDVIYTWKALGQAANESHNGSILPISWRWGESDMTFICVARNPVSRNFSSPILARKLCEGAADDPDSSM

T3: ANXA1
T3 construct: also called ANXA1-His (R&D Systems); not shown: His tag
T3 chain: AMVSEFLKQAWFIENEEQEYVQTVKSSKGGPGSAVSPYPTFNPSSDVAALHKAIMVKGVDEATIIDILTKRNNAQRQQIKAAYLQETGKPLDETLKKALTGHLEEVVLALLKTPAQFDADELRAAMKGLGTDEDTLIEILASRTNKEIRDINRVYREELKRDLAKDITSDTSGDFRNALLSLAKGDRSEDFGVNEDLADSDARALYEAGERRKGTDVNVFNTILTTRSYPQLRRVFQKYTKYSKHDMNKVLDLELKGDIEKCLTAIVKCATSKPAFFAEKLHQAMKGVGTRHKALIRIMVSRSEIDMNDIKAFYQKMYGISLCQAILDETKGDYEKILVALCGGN

T4: HHLA2
T4 construct: also called HHLA2-Fc (R&D Systems); B7-H7; not shown: Fc part and any linker
T4 chain: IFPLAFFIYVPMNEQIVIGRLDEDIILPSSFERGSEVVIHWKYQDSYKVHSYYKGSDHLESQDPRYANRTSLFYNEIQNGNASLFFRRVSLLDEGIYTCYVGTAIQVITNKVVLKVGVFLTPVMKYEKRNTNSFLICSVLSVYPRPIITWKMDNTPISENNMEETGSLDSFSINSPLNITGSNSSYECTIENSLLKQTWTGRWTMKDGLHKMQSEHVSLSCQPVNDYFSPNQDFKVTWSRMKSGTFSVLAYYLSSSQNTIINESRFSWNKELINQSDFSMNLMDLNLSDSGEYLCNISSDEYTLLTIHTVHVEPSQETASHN

T5: DCC
T5 construct: also called DCC-His (R&D Systems)
T5 chain: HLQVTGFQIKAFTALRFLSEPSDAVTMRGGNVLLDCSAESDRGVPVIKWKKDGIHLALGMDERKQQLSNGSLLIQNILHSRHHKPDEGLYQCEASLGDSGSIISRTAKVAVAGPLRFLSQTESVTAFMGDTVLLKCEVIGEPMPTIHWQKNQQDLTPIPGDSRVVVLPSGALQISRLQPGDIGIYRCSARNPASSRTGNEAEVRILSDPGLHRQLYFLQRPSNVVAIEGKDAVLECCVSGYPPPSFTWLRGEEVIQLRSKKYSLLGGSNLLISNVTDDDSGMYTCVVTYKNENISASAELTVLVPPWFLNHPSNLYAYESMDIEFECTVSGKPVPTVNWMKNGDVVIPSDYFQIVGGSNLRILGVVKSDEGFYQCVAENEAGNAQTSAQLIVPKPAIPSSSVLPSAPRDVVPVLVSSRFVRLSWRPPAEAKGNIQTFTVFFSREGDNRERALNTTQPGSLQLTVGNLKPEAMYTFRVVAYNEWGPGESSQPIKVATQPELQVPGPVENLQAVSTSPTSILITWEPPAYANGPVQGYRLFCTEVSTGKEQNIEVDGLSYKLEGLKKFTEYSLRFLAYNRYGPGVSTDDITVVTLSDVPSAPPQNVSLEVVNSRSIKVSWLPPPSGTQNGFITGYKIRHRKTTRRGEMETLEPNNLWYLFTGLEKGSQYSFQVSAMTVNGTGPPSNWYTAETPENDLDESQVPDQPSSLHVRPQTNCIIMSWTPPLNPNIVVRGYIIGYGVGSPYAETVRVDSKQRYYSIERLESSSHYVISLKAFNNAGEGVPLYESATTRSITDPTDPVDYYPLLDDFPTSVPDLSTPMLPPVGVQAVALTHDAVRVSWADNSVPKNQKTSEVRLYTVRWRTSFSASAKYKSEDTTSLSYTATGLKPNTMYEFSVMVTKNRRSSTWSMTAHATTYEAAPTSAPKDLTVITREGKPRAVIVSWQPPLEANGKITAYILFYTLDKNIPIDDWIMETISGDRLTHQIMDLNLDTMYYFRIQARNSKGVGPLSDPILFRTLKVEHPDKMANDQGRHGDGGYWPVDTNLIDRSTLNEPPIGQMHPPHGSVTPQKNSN

B1: HW-17 chimeric rabbit-human IgG1 LA/LA/PG (antibody, V domains shown)
VH: QSLGESRGRLVTPDETLTLTCTVSGIDLSSNAMSWVRQAPGEGLEWIGTINTGGRAYYASWAKGRFTISRTSTTVDLKMTSLTTEDTATYFCARERYSDGRAYDIWGPGTLVTISS
VL: SFVLTQPASVQVNLGQTVSLTCTADTLSRRYASWYQQKPGQAPVLLIYTDSNRPSGIPDRFSGSSSGNTATLTISGAQAGDEADYYCATDDGSGSIYQYVFGGGTQLTVTG
notes: Fc-silenced (L234A/L235A/P329G) IgG1, lambda; Alexa Fluor 647-labeled in single-step flow cytometry; Cluster C-1
B2: HW-8 chimeric rabbit-human IgG1 LA/LA/PG (antibody, V domains shown)
VH: QSLEESGGRLVTPGTPLTLTCTVSGFSLSSYAMSWVRQAPGKGLEWIGAISTGGSTTYASWAKGRFTISKTSSTTVDLKMTSLTTEDTATYFCVRHFRLWGPGTLVTISS
VL: QVLTQTPSSVSAAVGGTVTIKCQASQSIGSALAWFQQKPGQRPKLLIYRASNLASGVPSRFKGSGSGTEFALTISGVQREDAATYYCLGGAAAVWAFGAGTNVEIKR
notes: Fc-silenced (L234A/L235A/P329G) IgG1, kappa; Alexa Fluor 647-labeled in single-step flow cytometry; Cluster C-45
B3: HW-97 chimeric rabbit-human IgG1 LA/LA/PG (antibody, V domains shown)
VH: QKQLVESGGRLVTPGTPLTLTCTVTGIDLSSHGMSWVRQAPGKGLEWIGVIYPSGSTWYASWARGRFTISKTSTTVDLKMTSLTTEDTATHFCARGDVGGADNNIWGPGTLVTVSS
VL: B1 VL with N13D, D25E, R30S, T49R, S51T, N52S, I57V, D90S, I96S
notes: Fc-silenced (L234A/L235A/P329G) IgG1, lambda; Alexa Fluor 647-labeled in single-step flow cytometry; Prototype of cluster C-97
B4: HW-101 chimeric rabbit-human IgG1 LA/LA/PG (antibody, V domains shown)
VH: QEQLVESGGRLVTPGTPLTLTCKASGFSLGKYDMSWVRQAPGKGLEWIGTIYAGSGSTWYASWAKGRFTISKTSTTVDLKMTSLTTEDTATYFCARDFLGVNSIWGPGTLVTISS
VL: SFVLTQPASVQVNLGQTVSLTCTADTLSRSYASWYQQKPDQAPVLLIHRDTSRPSGVPDRFSGSNSGNTATLTISGAQAGDEADYYCATSDGSGSNFHFVFGGGTQLTVTG
notes: Fc-silenced (L234A/L235A/P329G) IgG1, lambda; Alexa Fluor 647-labeled in single-step flow cytometry; Cluster C-97
B5: TH9-0022 (antibody, human IgG1, kappa, L234A L235A, V domains shown)
VH: QSLEESGGRLVTPGTPLTLTCTVSGFSLSSYAMNWVRQAPGKGLEWIGIINSYGSTYYASWAKGRFTISKTSTTVDLKITSPTTEDTATYFCARVTYDSYGYGYAPYGMDLWGPGTLVTVSS
VL: LVMTQTPSSTSNAVGGTVTIKCQASQSIGNVLAWYQQKPGQPPKLLIYAASTLASGVPSRVGGSRSGTEYTLTISGVQREDAATYYCLGSDSDSDIAFGGGTELEILR
notes: also called TH9-022; negative control IgG1

Target: T1, IL13RA1
Test: ELISA on coated protein

**Q.** Does B1 bind?
**A.** no binding (tested: 150 ng IgG1 per well)

**Q.** Does B2 bind?
**A.** no binding (tested: 150 ng IgG1 per well)

**Q.** Does B3 bind?
**A.** no binding (tested: 150 ng IgG1 per well)

**Q.** Does B4 bind?
**A.** no binding (tested: 150 ng IgG1 per well)

**Q.** Does B5 bind?
**A.** no binding (tested: 150 ng IgG1 per well)

These binders were tested against T6, ICAM1-Fc (R&D Systems) (human, UniProt P05362 28-480) (assay: ELISA on coated protein).
T6 construct: Bought; also called ICAM-1/CD54; not shown: Fc of the bought fusion protein
T6 sequence (P05362 28-480): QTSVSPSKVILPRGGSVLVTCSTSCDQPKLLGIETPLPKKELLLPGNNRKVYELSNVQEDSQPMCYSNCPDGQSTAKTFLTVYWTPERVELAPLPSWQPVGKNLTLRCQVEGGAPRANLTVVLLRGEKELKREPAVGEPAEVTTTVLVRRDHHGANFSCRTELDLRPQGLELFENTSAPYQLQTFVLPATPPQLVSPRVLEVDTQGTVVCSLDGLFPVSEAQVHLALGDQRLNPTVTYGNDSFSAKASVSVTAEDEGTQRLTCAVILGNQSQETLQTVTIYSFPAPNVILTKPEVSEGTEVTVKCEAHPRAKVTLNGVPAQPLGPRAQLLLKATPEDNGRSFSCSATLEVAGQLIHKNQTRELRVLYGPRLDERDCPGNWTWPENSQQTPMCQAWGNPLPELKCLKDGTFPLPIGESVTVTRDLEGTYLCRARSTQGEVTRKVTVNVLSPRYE

**Q.** Does B1 bind?
**A.** no binding (tested: 150 ng IgG1 per well)

**Q.** Does B2 bind?
**A.** no binding (tested: 150 ng IgG1 per well)

**Q.** Does B3 bind?
**A.** no binding (tested: 150 ng IgG1 per well)

**Q.** Does B4 bind?
**A.** no binding (tested: 150 ng IgG1 per well)

**Q.** Does B5 bind?
**A.** no binding (tested: 150 ng IgG1 per well)

Target: T2, SLAMF7
Test: ELISA on coated protein

**Q.** Does B1 bind?
**A.** no binding (tested: 150 ng IgG1 per well)

**Q.** Does B2 bind?
**A.** no binding (tested: 150 ng IgG1 per well)

**Q.** Does B3 bind?
**A.** no binding (tested: 150 ng IgG1 per well)

**Q.** Does B4 bind?
**A.** no binding (tested: 150 ng IgG1 per well)

**Q.** Does B5 bind?
**A.** no binding (tested: 150 ng IgG1 per well)

Target: T3, ANXA1
Test: ELISA on coated protein

**Q.** Does B1 bind?
**A.** no binding (tested: 150 ng IgG1 per well)

**Q.** Does B2 bind?
**A.** no binding (tested: 150 ng IgG1 per well)

**Q.** Does B3 bind?
**A.** no binding (tested: 150 ng IgG1 per well)

**Q.** Does B4 bind?
**A.** no binding (tested: 150 ng IgG1 per well)

**Q.** Does B5 bind?
**A.** no binding (tested: 150 ng IgG1 per well)

Target: T4, HHLA2
Test: ELISA on coated protein

**Q.** Does B1 bind?
**A.** no binding (tested: 150 ng IgG1 per well)

**Q.** Does B2 bind?
**A.** no binding (tested: 150 ng IgG1 per well)

**Q.** Does B3 bind?
**A.** no binding (tested: 150 ng IgG1 per well)

**Q.** Does B4 bind?
**A.** no binding (tested: 150 ng IgG1 per well)

**Q.** Does B5 bind?
**A.** no binding (tested: 150 ng IgG1 per well)

Target: T5, DCC
Test: ELISA on coated protein

**Q.** Does B1 bind?
**A.** no binding (tested: 150 ng IgG1 per well)

**Q.** Does B2 bind?
**A.** no binding (tested: 150 ng IgG1 per well)

**Q.** Does B3 bind?
**A.** no binding (tested: 150 ng IgG1 per well)

**Q.** Does B4 bind?
**A.** no binding (tested: 150 ng IgG1 per well)

**Q.** Does B5 bind?
**A.** no binding (tested: 150 ng IgG1 per well)
